Measurements reported in patent publication JP2010189402A (dated 2010).
Substitutions are numbered along the chain they refer to. Several values for one entry are separate records, joined by “and”; a condition that tells them apart may be missing. Equal entries are not always repeated.

T1: ヒトCD20抗原 (human, UniProt P11836 1-297)
T1 construct: whole, on cells; Kd values were measured on Raji suspension cells that express CD20 naturally; also called CD20; ヒトCD20分子
T1 sequence (looked up): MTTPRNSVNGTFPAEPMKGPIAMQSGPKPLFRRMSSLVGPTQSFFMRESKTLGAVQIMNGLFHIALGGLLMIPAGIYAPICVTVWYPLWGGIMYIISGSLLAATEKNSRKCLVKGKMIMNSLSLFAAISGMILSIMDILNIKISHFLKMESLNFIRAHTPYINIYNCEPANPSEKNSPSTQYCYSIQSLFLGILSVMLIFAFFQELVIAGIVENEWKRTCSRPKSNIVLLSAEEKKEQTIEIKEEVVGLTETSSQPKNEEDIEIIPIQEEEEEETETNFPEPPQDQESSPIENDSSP

B1: ヒト化抗CD20モノクローナル抗体 hz1791-ff (antibody, V domains shown)
VH: QIQLVQSGSELKKPGASVKVSCKASGYTFTNFGVNWVKQAPGKGLKWMGWINTYTGEPSYADDFKGRFAFSLDASASTAYLQISSLKAEDMATYFCTRRTNYYGTSYYYAMDYWGQGTTVTVSS
VL: STVMTQSPSFLSASVGDRVTITCKASQSVSNDVAWYQQKPGQSPKVLIYFASNRYTGVPDRFSGSGYGTDFTLTISSLQAEDVAVYFCQQDYSSPLTFGAGTKLEIK
notes: also called ff; hz1791-ff34
B2: ヒト化抗CD20モノクローナル抗体 hz1791-fv (antibody, V domains shown)
VH: B1 VH with S9P, V20I, A76V, M91T, A92S
VL: B1 VL
notes: also called fv; hz1791-fv10
B3: ヒト化抗CD20モノクローナル抗体 hz1791-sf (antibody, V domains shown)
VH: B1 VH
VL: STVMTQSPDSLAVSLGERATINCKSSQSNSNDVAWYQQKPGQSPKVLIYFASNRYSGVPDRFSGSGYGTDFTLTISSLQAEDVAVYFCQQDYSSPLTFGAGTKLEIK
notes: also called sf; hz1791-sf43
B4: 抗CD20キメラ抗体 1k1422 (antibody, V domains shown)
VH: QVQLQQPGAELVKPGASVKMSCRASGYTFTNYNMHWIKQTPGQGLEWIGAIYPGSGDTSYNRKFKGKATLTADTSSSTAYMQFSSLTSADSAVYYCARFTYYYGGTYGAMDYWGQGTSVTVSL
VL: QIVLTQSPPIMSASLGEEITLTCSASSRVSYMLWYQQKSGTSPKLLIYSTSNLASGVPSRFSGSGSGTFYSLTISSVEAEDAADYYCHQWTSNPCTFGGGTKLEIK
B5: 抗CD20キメラ抗体 1k0924 (antibody, V domains shown)
VH: QVQLQQPGAELVKPGASVKMSCKASGYTFTSYNIHWVKQTPGQGLEWIGAIYPGNGDTSYNQKFKGKATLTSDKSSSTAYMQLSSLTSEDSAVYYCARMSTMITGFDYWGQGTTLTVSS
VL: QIVLSQSPAILSASPGEKVTMTCRASSSVSYMHWYQQRPGSSPKPWIYATSNLASGVPARFSGSGSGTSYYFTISRVEAEDAATYYCQQWNSNPPTHGGGTKLEIK
B6: 抗CD20キメラ抗体 1k1736 (antibody, V domains shown)
VH: QVQLQQPGAELVKPGASVKMSCKASGYTFTTYNLHWVKQTPGQGLEWIGGIYPGNGDTSYNQKFKVKATLTADKSSNTAYMQLSSLTSEDSAVYYCARWIYYGNYEGTLDYWGQGTSVTVSS
VL: B5 VL with A13S, H33L, R38K, K44E, S64G, Y71S, F72L, N91T, S92F, H97F
B7: ヒト化抗CD20モノクローナル抗体 hz1791-ss (antibody, V domains shown)
VH: B1 VH with K38R, D62Q, D63G, K65T, A76V, M91T
VL: B3 VL
notes: also called ss; hz1791-ss32
B8: 抗ヒトCD20マウスモノクローナル抗体 1K1228 (antibody, V domains shown)
VH: QVQLQQPGAELVKPGASVKVSCKASGFTFTSYNLHWVKQTPGQGLVWIGAIYPGNGDTSYNQKFRGKATLTADISSSTAYMQLSSLTSEDSAVYYCARYYYGYDAMDYWGQGTSVTVSS
VL: EIILTQSPTTMAASPGEKITITCSASSSISSYYLRWYQQKPGFSPKVLIYRTSNLASGVPARFSGSGSGTSYSLTIGTMEAEDVATYYCQQGNTVPLTFGSGTKLEIK
notes: Mouse monoclonal antibody from hybridoma; also called m1228
B9: 抗ヒトCD20マウスモノクローナル抗体 1k1782 (antibody, V domains shown)
VH: QVQLQQSGAELAKPGASVKMSCKASGYTFTSYWMHWVKQRPGQGLEWIGYITPSTGYTDYNKKFKDKATLTADRSSSTAYMHLSSLTSEDSAVYYCARSGPYFDVWGAGTTVTVSS
VL: DILLTQSPAILFVSPGERVSLSCRASQNIGTSIHWYQQRTNGSPRLLIKYASESFSGIPSRFSGSGSGTDFTLSINSVESEDIADYYCQQSNSWPFTFGSGTKLEIK
notes: Mouse monoclonal antibody from hybridoma; also called m1782
B10: 抗ヒトCD20マウスモノクローナル抗体 1k1712 (antibody, V domains shown)
VH: QVQLQQPGAELVKPGASVKMSCKASGFTFTSYNLHWVKQTPGQGLEWIGAIYPGSGDTSYNQQFKGKATLTADKSSNTAYMQLNSLTSEDSAVYCCARSAMISTGNWYFDYWGQGTTLTVSS
VL: B5 VL with H33D, R38K, Y71S, F72L, A82T, N91T, S92F, H97F, G99S
notes: Mouse monoclonal antibody from hybridoma; also called m1712
B11: 抗ヒトCD20マウスモノクローナル抗体 1k1402 (antibody, V domains shown)
VH: QVQLQQPGAELVKPGASVKMSCKASGFTFTSYNMHWVKQTPGQGLEWIGGIYPGNGDTSYNQKFKGKATLTADKSSSTAYMQLSSLTSEDSAVYYCARFYYYGSMGAMDYWGQGTSVTVSS
VL: B5 VL with R38K, Y71S, F72L, S75T, N91T, S92F, H97F, G99A, I105L
notes: Mouse monoclonal antibody from hybridoma; also called m1402

molecular target: T1, ヒトCD20抗原; test: Scatchard analysis, Raji cells, FITC-labelled secondary antibody fluorescence

Kd | Binder
< 9.5 nM | B1
< 9.5 nM | B2
13 nM and 9.5 nM | B3

molecular target: T1, ヒトCD20抗原; test: cell-based or functional assay

CDC 傷害活性 (RC−K8細胞) | Binder
~10 % | B4
~25 % | B5
~10 % | B6

molecular target: T1, ヒトCD20抗原; test: Scatchard analysis, Raji cells

binding result | Binder
binds | B7
binds | B8
binds | B9
binds | B10
binds | B11
